# Measurements as given in paper PMC9234269.
# Biological target: Aβ1–42 fibrils (sonicated, immobilized) (human) (UniProt P05067)
# Assay: ELISA; sonicated Aβ1–42 fibrils coated on a high binding plate (50 μl of 2.5 μg/ml, carbonate buffer pH 9.6, overnight 8°C); blocked with 2% BSA in PBS pH 7.4; chaperones in 2% BSA up to 5,000 nM, 2 h at room temperature; detected with polyclonal anti-6×His; bound amount estimated from standard curves of chaperone deposited directly (0–100 nM)
row,stoichiometry N (Aβ1–42 monomers per chaperone molecule),Substance
1,70,Drosophila HSP10 (natural protein)
2,1400,GroES (from UniProt P0A6F9 1-97) (natural protein)
3,800,Human HSP10 (from UniProt P61604 3-102) (natural protein)
